Sequences and labels used below:
B1: GFP-GST-Rad54 (enzyme, Saccharomyces cerevisiae, UniProt P32863 1-898, looked up)
chain: MARRRLPDRPPNGIGAGERPRLVPRPINVQDSVNRLTKPFRVPYKNTHIPPAAGRIATGSDNIVGGRSLRKRSATVCYSGLDINADEAEYNSQDISFSQLTKRRKDALSAQRLAKDPTRLSHIQYTLRRSFTVPIKGYVQRHSLPLTLGMKKKITPEPRPLHDPTDEFAIVLYDPSVDGEMIVHDTSMDNKEEESKKMIKSTQEKDNINKEKNSQEERPTQRIGRHPALMTNGVRNKPLRELLGDSENSAENKKKFASVPVVIDPKLAKILRPHQVEGVRFLYRCVTGLVMKDYLEAEAFNTSSEDPLKSDEKALTESQKTEQNNRGAYGCIMADEMGLGKTLQCIALMWTLLRQGPQGKRLIDKCIIVCPSSLVNNWANELIKWLGPNTLTPLAVDGKKSSMGGGNTTVSQAIHAWAQAQGRNIVKPVLIISYETLRRNVDQLKNCNVGLMLADEGHRLKNGDSLTFTALDSISCPRRVILSGTPIQNDLSEYFALLSFSNPGLLGSRAEFRKNFENPILRGRDADATDKEITKGEAQLQKLSTIVSKFIIRRTNDILAKYLPCKYEHVIFVNLKPLQNELYNKLIKSREVKKVVKGVGGSQPLRAIGILKKLCNHPNLLNFEDEFDDEDDLELPDDYNMPGSKARDVQTKYSAKFSILERFLHKIKTESDDKIVLISNYTQTLDLIEKMCRYKHYSAVRLDGTMSINKRQKLVDRFNDPEGQEFIFLLSSKAGGCGINLIGANRLILMDPDWNPAADQQALARVWRDGQKKDCFIYRFISTGTIEEKIFQRQSMKMSLSSCVVDAKEDVERLFSSDNLRQLFQKNENTICETHETYHCKRCNAQGKQLKRAPAMLYGDATTWNHLNHDALEKTNDHLLKNEHHYNDISFAFQYISH
B2: Rad51 (natural protein, UniProt P25454 1-400, looked up)
chain: MSQVQEQHISESQLQYGNGSLMSTVPADLSQSVVDGNGNGSSEDIEATNGSGDGGGLQEQAEAQGEMEDEAYDEAALGSFVPIEKLQVNGITMADVKKLRESGLHTAEAVAYAPRKDLLEIKGISEAKADKLLNEAARLVPMGFVTAADFHMRRSELICLTTGSKNLDTLLGGGVETGSITELFGEFRTGKSQLCHTLAVTCQIPLDIGGGEGKCLYIDTEGTFRPVRLVSIAQRFGLDPDDALNNVAYARAYNADHQLRLLDAAAQMMSESRFSLIVVDSVMALYRTDFSGRGELSARQMHLAKFMRALQRLADQFGVAVVVTNQVVAQVDGGMAFNPDPKKPIGGNIMAHSSTTRLGFKKGKGCQRLCKVVDSPCLPEAECVFAIYEDGVGDPREEDE
B3: GFP-GST-Rad54 S816AS817A (enzyme, Saccharomyces cerevisiae, UniProt P32863 1-898, looked up)
chain: MARRRLPDRPPNGIGAGERPRLVPRPINVQDSVNRLTKPFRVPYKNTHIPPAAGRIATGSDNIVGGRSLRKRSATVCYSGLDINADEAEYNSQDISFSQLTKRRKDALSAQRLAKDPTRLSHIQYTLRRSFTVPIKGYVQRHSLPLTLGMKKKITPEPRPLHDPTDEFAIVLYDPSVDGEMIVHDTSMDNKEEESKKMIKSTQEKDNINKEKNSQEERPTQRIGRHPALMTNGVRNKPLRELLGDSENSAENKKKFASVPVVIDPKLAKILRPHQVEGVRFLYRCVTGLVMKDYLEAEAFNTSSEDPLKSDEKALTESQKTEQNNRGAYGCIMADEMGLGKTLQCIALMWTLLRQGPQGKRLIDKCIIVCPSSLVNNWANELIKWLGPNTLTPLAVDGKKSSMGGGNTTVSQAIHAWAQAQGRNIVKPVLIISYETLRRNVDQLKNCNVGLMLADEGHRLKNGDSLTFTALDSISCPRRVILSGTPIQNDLSEYFALLSFSNPGLLGSRAEFRKNFENPILRGRDADATDKEITKGEAQLQKLSTIVSKFIIRRTNDILAKYLPCKYEHVIFVNLKPLQNELYNKLIKSREVKKVVKGVGGSQPLRAIGILKKLCNHPNLLNFEDEFDDEDDLELPDDYNMPGSKARDVQTKYSAKFSILERFLHKIKTESDDKIVLISNYTQTLDLIEKMCRYKHYSAVRLDGTMSINKRQKLVDRFNDPEGQEFIFLLSSKAGGCGINLIGANRLILMDPDWNPAADQQALARVWRDGQKKDCFIYRFISTGTIEEKIFQRQSMKMSLSSCVVDAKEDVERLFAADNLRQLFQKNENTICETHETYHCKRCNAQGKQLKRAPAMLYGDATTWNHLNHDALEKTNDHLLKNEHHYNDISFAFQYISH

What all share (assay): single-molecule DNA curtains
For the experiment “Rad51”, the target named is B2.
The target of the experiment “GFP-GST-Rad54” is B1.
The experiment “GFP-GST-Rad54 S816AS817A” addresses B3.
Another experiment concerns the target T1, GFP-GST-Rad54 S816DS817D (Saccharomyces cerevisiae, UniProt P32863 1-898, S816D | S817D).
T1 sequence (looked up): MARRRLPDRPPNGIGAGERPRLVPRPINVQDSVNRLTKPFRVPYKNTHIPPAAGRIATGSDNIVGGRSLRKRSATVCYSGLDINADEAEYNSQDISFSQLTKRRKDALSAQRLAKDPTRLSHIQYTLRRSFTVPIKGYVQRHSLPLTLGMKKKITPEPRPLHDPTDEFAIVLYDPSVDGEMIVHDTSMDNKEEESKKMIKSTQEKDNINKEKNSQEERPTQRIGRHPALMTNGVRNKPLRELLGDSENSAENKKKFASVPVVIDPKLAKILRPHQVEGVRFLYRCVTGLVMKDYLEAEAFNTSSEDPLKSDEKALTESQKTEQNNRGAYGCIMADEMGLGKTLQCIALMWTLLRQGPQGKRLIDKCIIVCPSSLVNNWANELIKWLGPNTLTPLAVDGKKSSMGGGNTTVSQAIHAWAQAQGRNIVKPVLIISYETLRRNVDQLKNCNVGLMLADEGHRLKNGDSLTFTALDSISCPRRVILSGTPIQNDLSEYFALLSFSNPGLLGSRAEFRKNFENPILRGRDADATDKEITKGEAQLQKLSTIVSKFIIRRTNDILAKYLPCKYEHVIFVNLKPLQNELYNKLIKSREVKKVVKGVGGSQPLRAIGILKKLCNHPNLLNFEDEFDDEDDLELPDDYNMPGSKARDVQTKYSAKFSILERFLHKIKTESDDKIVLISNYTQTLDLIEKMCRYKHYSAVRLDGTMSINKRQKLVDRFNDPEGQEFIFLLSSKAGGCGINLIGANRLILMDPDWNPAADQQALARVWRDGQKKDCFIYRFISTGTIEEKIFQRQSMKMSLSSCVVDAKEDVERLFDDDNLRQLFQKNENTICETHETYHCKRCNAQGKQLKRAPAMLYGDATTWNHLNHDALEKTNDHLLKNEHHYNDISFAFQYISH

As to B1, in the experiment with Rad51, the “fold change of Rad54 molecules per PSC, flow off against constant flow” value is 2 fold.
As for B2, the binding result in the experiment with GFP-GST-Rad54, in the experiment with GFP-GST-Rad54 S816AS817A and with GFP-GST-Rad54 S816DS817D was “binds” in each case.
Take B3: the “fold change of Rad54 molecules per PSC, flow off against constant flow” value in the experiment with Rad51 was determined as 2 fold.
